We go through 60 molecules from patent US20180291083A1 (IMMATICS BIOTECHNOLOGIES, published 2018).

Sequences and labels used below:
B1: RTYGFVLTF (peptide)
peptide: RTYGFVLTF
B2: SVAHLLSKY (peptide)
peptide: SVAHLLSKY
B3: TTVPHVFSK (peptide)
peptide: TTVPHVFSK
B4: RMYSQLKTLQK (peptide)
peptide: RMYSQLKTLQK
B5: RIKPPGPTAVPK (peptide)
peptide: RIKPPGPTAVPK
B6: SVYSETSNMDK (peptide)
peptide: SVYSETSNMDK
B7: KAKAAAKPK (peptide)
peptide: KAKAAAKPK
B8: ASTTVLALK (peptide)
peptide: ASTTVLALK
B9: SVSSSTHFTR (peptide)
peptide: SVSSSTHFTR
B10: SVFEGDSIVLK (peptide)
peptide: SVFEGDSIVLK
B11: SVLDLSVHK (peptide)
peptide: SVLDLSVHK
B12: KTSNIVKIK (peptide)
peptide: KTSNIVKIK
B13: KARKSAGAAK (peptide)
peptide: KARKSAGAAK
B14: HSYSSPSTK (peptide)
peptide: HSYSSPSTK
B15: RVYNIYIRR (peptide)
peptide: RVYNIYIRR
B16: RSKEYIRKK (peptide)
peptide: RSKEYIRKK
B17: KVYDPVSEY (peptide)
peptide: KVYDPVSEY
B18: GLLEEALFY (peptide)
peptide: GLLEEALFY
B19: ATGAATPKK (peptide)
peptide: ATGAATPKK
B20: LLWHWDTTQSLK (peptide)
peptide: LLWHWDTTQSLK
B21: KAKKPAGAAK (peptide)
peptide: KAKKPAGAAK
B22: KLMETSMGF (peptide)
peptide: KLMETSMGF
B23: RVLTGVFTK (peptide)
peptide: RVLTGVFTK
B24: KTLPAMLGTGK (peptide)
peptide: KTLPAMLGTGK
B25: VVFPFPVNK (peptide)
peptide: VVFPFPVNK
B26: RIYDEILQSK (peptide)
peptide: RIYDEILQSK
B27: RVFPSPMRI (peptide)
peptide: RVFPSPMRI
B28: KLNPQQAPLY (peptide)
peptide: KLNPQQAPLY
B29: ATYNKQPMYR (peptide)
peptide: ATYNKQPMYR
B30: KATGAATPK (peptide)
peptide: KATGAATPK
B31: ATKSPAKPK (peptide)
peptide: ATKSPAKPK
B32: RIKAPSRNTIQK (peptide)
peptide: RIKAPSRNTIQK
B33: VILESIFLK (peptide)
peptide: VILESIFLK
B34: KAFNQSSTLTK (peptide)
peptide: KAFNQSSTLTK
B35: MPLSTIREV (peptide)
peptide: MPLSTIREV
B36: SPRNLQPQRAAL (peptide)
peptide: SPRNLQPQRAAL
B37: APAPAEKTPV (peptide)
peptide: APAPAEKTPV
B38: LPYDSKHQI (peptide)
peptide: LPYDSKHQI
B39: APSKTSLIM (peptide)
peptide: APSKTSLIM
B40: VPNLQTVSV (peptide)
peptide: VPNLQTVSV
B41: SPRSWIQVQI (peptide)
peptide: SPRSWIQVQI
B42: SPLGSLARSSL (peptide)
peptide: SPLGSLARSSL
B43: QPSPARAPAEL (peptide)
peptide: QPSPARAPAEL
B44: RPSNKAPLL (peptide)
peptide: RPSNKAPLL
B45: SPADHRGYASL (peptide)
peptide: SPADHRGYASL
B46: LPKVQSIQL (peptide)
peptide: LPKVQSIQL
B47: APRPAGSYL (peptide)
peptide: APRPAGSYL
B48: SPSLPNITL (peptide)
peptide: SPSLPNITL
B49: RPHIPISKL (peptide)
peptide: RPHIPISKL
B50: YPGSDRIML (peptide)
peptide: YPGSDRIML
B51: QPRLFTMDL (peptide)
peptide: QPRLFTMDL
B52: RPFADLLGTAF (peptide)
peptide: RPFADLLGTAF
B53: MPSSDTTVTF (peptide)
peptide: MPSSDTTVTF
B54: KPMKSVLVV (peptide)
peptide: KPMKSVLVV
B55: SPFSFHHVL (peptide)
peptide: SPFSFHHVL
B56: SPRVYWLGL (peptide)
peptide: SPRVYWLGL
B57: SPWLHAPSL (peptide)
peptide: SPWLHAPSL
B58: SPKESENAL (peptide)
peptide: SPKESENAL
B59: SPSLPSRTL (peptide)
peptide: SPSLPSRTL
B60: SPLSHHSQL (peptide)
peptide: SPLSHHSQL

In the first test the target is T1, HLA-A*03:01 (human).
T1 construct: Peptide-receptive MHC class I monomer made by UV cleavage of a UV-sensitive ligand
Put plainly: UV ligand exchange ELISA; exchange yield grade. From the text:
(§1) Candidate peptides for T cell based therapies according to the present invention were further tested for their MHC binding capacity (affinity). The individual peptide-MHC complexes were produced by UV-ligand exchange, where a UV-sensitive peptide is cleaved upon UV-irradiation, and exchanged with the peptide of interest as analyzed. Only peptide candidates that can effectively bind and stabilize the peptide-receptive MHC molecules prevent dissociation of the MHC complexes. To determine the yield of the exchange reaction, an ELISA was performed based on the detection of the light chain (β2m) of stabilized MHC complexes. The assay was performed as generally described in Rodenko et al. (Rodenko et al., 2006).
(§2) 96 well MAXISorp plates (NUNC) were coated over night with 2 ug/ml streptavidin in PBS at room temperature, washed 4× and blocked for 1 h at 37° C. in 2% BSA containing blocking buffer. Refolded HLA-A*02:01/MLA-001 monomers served as standards, covering the range of 15-500 ng/ml. Peptide-MHC monomers of the UV-exchange reaction were diluted 100-fold in blocking buffer. Samples were incubated for 1 h at 37° C., washed four times, incubated with 2 ug/ml HRP conjugated anti-β2m for 1 h at 37° C., washed again and detected with TMB solution that is stopped with […]. Absorption was measured at 450 nm. Candidate peptides that show a high exchange yield (preferably higher than 50%, most preferred higher than 75%) are generally preferred for a generation and production of antibodies or fragments thereof, and/or T cell receptors or fragments thereof, as they show sufficient avidity to the MHC molecules and prevent dissociation of the MHC complexes.
B1 returned a peptide exchange yield of 20 to 50%.

Regarding B2, the peptide exchange yield was 20 to 50%.

The molecule B3 had a peptide exchange yield of 20 to 50%.

Take B4: the peptide exchange yield fell in the range of 50 to 75%.

In turn, B5 came in with a peptide exchange yield of 50 to 75%.

Consider B6, for which the peptide exchange yield lay in the range of 50 to 75%.

The molecule B7 showed a peptide exchange yield of 20 to 50%.

Turning to B8, the peptide exchange yield was in the range of 20 to 50%.

On to B9, for which the peptide exchange yield lay in the range of 20 to 50%.

For the molecule B10, the peptide exchange yield is 20 to 50%.

B11 had a peptide exchange yield of 20 to 50%.

For the molecule B12, the peptide exchange yield lay in the range of 20 to 50%.

B13 gave a peptide exchange yield of 50 to 75%.

B14 showed a peptide exchange yield of 50 to 75%.

In the case of B15, the peptide exchange yield is 20 to 50%.

Take B16: the peptide exchange yield lay within 10 to 20%.

B17 returned a peptide exchange yield of 20 to 50%.

With B18, the peptide exchange yield is 20 to 50%.

For B19, the peptide exchange yield fell in the range of 50 to 75%.

The molecule B20 yielded a peptide exchange yield of 10 to 20%.

B21 came in with a peptide exchange yield of 50 to 75%.

B22 registered a peptide exchange yield of 20 to 50%.

Turning to B23, the peptide exchange yield was in the range of 20 to 50%.

B24 gave a peptide exchange yield of 20 to 50%.

B25 came in with a peptide exchange yield of 50 to 75%.

B26: the peptide exchange yield is 20 to 50%.

For the molecule B27, the peptide exchange yield lay within 20 to 50%.

In turn, B28 yielded a peptide exchange yield of 20 to 50%.

Consider B29, for which the peptide exchange yield was 50 to 75%.

Regarding B30, the peptide exchange yield fell in the range of 20 to 50%.

Take B31: the peptide exchange yield lay in the range of 50 to 75%.

Regarding B32, the peptide exchange yield lay in the range of 20 to 50%.

The molecule B33 displayed a peptide exchange yield of 20 to 50%.

In the case of B34, the peptide exchange yield is 50 to 75%.

A further test addresses T2, HLA-B*07:02 (human).
T2 construct: Peptide-receptive MHC class I monomer made by UV cleavage of a UV-sensitive ligand
Put plainly: UV ligand exchange ELISA; exchange yield grade.
Source text: as §1, §2
On the technique in general: An ELISA detects its analyte on a solid surface through an enzyme-linked reagent.
On to B35, for which the peptide exchange yield was in the range of 20 to 50%.

The molecule B36 registered a peptide exchange yield of 50 to 75%.

Regarding B37, the peptide exchange yield was 50 to 75%.

B38: the peptide exchange yield lay in the range of 20 to 50%.

Molecule B39 returned a peptide exchange yield of 20 to 50%.

Molecule B40 registered a peptide exchange yield of 20 to 50%.

B41: the peptide exchange yield lay within 50 to 75%.

B42 had a peptide exchange yield greater than 75%.

B43 displayed a peptide exchange yield of 20 to 50%.

The molecule B44 displayed a peptide exchange yield of 50 to 75%.

Turning to B45, the peptide exchange yield lay in the range of 20 to 50%.

The molecule B46 came in with a peptide exchange yield of 20 to 50%.

B47 gave a peptide exchange yield of 50 to 75%.

The molecule B48 came in with a peptide exchange yield of 50 to 75%.

B49 yielded a peptide exchange yield of 20 to 50%.

Consider B50, for which the peptide exchange yield is 20 to 50%.

With B51, the peptide exchange yield is 50 to 75%.

Molecule B52 showed a peptide exchange yield of 50 to 75%.

Regarding B53, the peptide exchange yield lay within 50 to 75%.

As to B54, the peptide exchange yield is 50 to 75%.

B55 came in with a peptide exchange yield of 20 to 50%.

In turn, B56 returned a peptide exchange yield of 50 to 75%.

As for B57, the peptide exchange yield lay in the range of 20 to 50%.

The molecule B58 had a peptide exchange yield of 20 to 50%.

As for B59, the peptide exchange yield was in the range of 20 to 50%.

With B60, the peptide exchange yield lay within 20 to 50%.
